Assay results from the supplement of paper PMC7877785.
± gives the uncertainty stated by the source.

Test: self-splicing fitness, log relative to wild type (ln ratio); higher = more splicing; Tetrahymena group I intron in knt gene, E. coli kanamycin selection, DiMSum; sequences stand for … in CUCUCU…GGAGGGAAAAGUUAUCAGGCAUGCACCUGGUAGCUAGUCUUUAAACCAAUAGAUUGCAUCGGUUUAAAAGGCAAGACCGUCAAAUUGCGGGAAAGGGGUCAACAGCCGUUCAGUACCAAGUCUCAGGGGAAACUUUGAGAUGGCCUUGCAAAGGGUAUGGUAAUAAGCUGACGGACAUGGUCCUAACCACGCAGCCAAGUCCUAAGUCAACAGAUCUUCUGUUGAUAUGGAUGCAGUUCACAGACUAAAUGUCGGUCGGGGAAGAUGUAUUCUUCUCAUAAGAUAUAGUCGGACCUCUCCUUAAUGGGAGCUAGCGGAUGAAGUGAUGCAACACUGGAGCCGCUGGGAACUAAUUUGUAUGCGAAAGUAUAUUGAUUAGUUUUGGAGUACUCGUGGUCG
Procedure, shortened: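 DiMSum derived fitness as the error-weighted combination of fold changes across replicates, kanamycin versus no kanamycin, normalised to wild type. E. coli BL21(DE3) held the library, which randomised all eight P1ex-region intron nucleotides within the knt kanamycin-resistance gene on pET-22b(+). Six replicate transformations grew overnight at 37°C or 30°C on LB agar with or without 25 μg/mL kanamycin, also containing 100 μg/mL carbenicillin, 50 μM IPTG and 0.2% rhamnose, and pooled colonies were amplicon-sequenced on an Illumina HiSeq 2500.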

## ACGCAGCAAUAUUACGCGAA
30 °C
  self-splicing fitness (ln): -2.4 ± 0.15
37 °C
  self-splicing fitness (ln): -1.2 ± 0.13

## ACGCAGCAAUAUUACGCUAC
30 °C
  self-splicing fitness (ln): -1.93 ± 0.25
37 °C
  self-splicing fitness (ln): -2.59 ± 0.45

## ACGCAGCAAUAUUACGGGCU
30 °C
  self-splicing fitness (ln): -2.46 ± 0.11
37 °C
  self-splicing fitness (ln): -1.36 ± 0.12

## ACGCAGCAAUAUUACGGGUG
30 °C
  self-splicing fitness (ln): -1.56 ± 0.068
37 °C
  self-splicing fitness (ln): -0.519 ± 0.076

## ACGCAGCAAUAUUACGGUAA
30 °C
  self-splicing fitness (ln): -2.69 ± 0.12
37 °C
  self-splicing fitness (ln): -1.02 ± 0.082

## ACGCAGCAAUAUUACGUACU
30 °C
  self-splicing fitness (ln): -1.12 ± 0.077
37 °C
  self-splicing fitness (ln): -0.434 ± 0.088

## ACGCAGCAAUAUUACGUAGC
30 °C
  self-splicing fitness (ln): -3.47 ± 0.12
37 °C
  self-splicing fitness (ln): -1.89 ± 0.14

## ACGCAGCAAUAUUACGUAGU
30 °C
  self-splicing fitness (ln): -2.76 ± 0.087
37 °C
  self-splicing fitness (ln): -1.92 ± 0.1

## ACGCAGCAAUAUUACGUAUU
30 °C
  self-splicing fitness (ln): -3.49 ± 0.32
37 °C
  self-splicing fitness (ln): -2 ± 0.16

## ACGCAGCAAUAUUACGUCUA
30 °C
  self-splicing fitness (ln): -1.55 ± 0.096
37 °C
  self-splicing fitness (ln): -1.22 ± 0.08

## ACGGAGCAAUAUUACGACUA
30 °C
  self-splicing fitness (ln): -2.73 ± 0.35
37 °C
  self-splicing fitness (ln): -2.09 ± 0.24

## ACGGAGCAAUAUUACGACUG
30 °C
  self-splicing fitness (ln): -1.95 ± 0.14
37 °C
  self-splicing fitness (ln): -0.681 ± 0.13

## ACGGAGCAAUAUUACGAGGC
30 °C
  self-splicing fitness (ln): -2.43 ± 0.19
37 °C
  self-splicing fitness (ln): -2.07 ± 0.31

## ACGGAGCAAUAUUACGAUAC
30 °C
  self-splicing fitness (ln): -2.35 ± 0.18
37 °C
  self-splicing fitness (ln): -1.98 ± 0.22

## ACGGAGCAAUAUUACGCGAA
30 °C
  self-splicing fitness (ln): -3.05 ± 0.32
37 °C
  self-splicing fitness (ln): -1.57 ± 0.23

## ACGGAGCAAUAUUACGCUAU
30 °C
  self-splicing fitness (ln): -3.81 ± 0.23
37 °C
  self-splicing fitness (ln): -2.1 ± 0.19

## ACGGAGCAAUAUUACGCUGA
30 °C
  self-splicing fitness (ln): -1.48 ± 0.17
37 °C
  self-splicing fitness (ln): -1.9 ± 0.21

## ACGGAGCAAUAUUACGGAAA
37 °C
  self-splicing fitness (ln): -2.15 ± 0.24

## ACGGAGCAAUAUUACGGCAA
30 °C
  self-splicing fitness (ln): -2.98 ± 0.3
37 °C
  self-splicing fitness (ln): -2.61 ± 0.27

## ACGGAGCAAUAUUACGGCAC
30 °C
  self-splicing fitness (ln): -3.21 ± 0.28
37 °C
  self-splicing fitness (ln): -2.43 ± 0.23

## ACGGAGCAAUAUUACGGCAG
37 °C
  self-splicing fitness (ln): -1.07 ± 0.44

## ACGGAGCAAUAUUACGGCGG
30 °C
  self-splicing fitness (ln): -1.4 ± 0.12
37 °C
  self-splicing fitness (ln): -0.413 ± 0.13

## ACGGAGCAAUAUUACGGGGA
30 °C
  self-splicing fitness (ln): -1.07 ± 0.24
37 °C
  self-splicing fitness (ln): -3.6 ± 0.42

## ACGGAGCAAUAUUACGUACG
30 °C
  self-splicing fitness (ln): -2.38 ± 0.45

## ACGGAGCAAUAUUACGUCAU
30 °C
  self-splicing fitness (ln): -4.36 ± 0.37
37 °C
  self-splicing fitness (ln): -3.01 ± 0.37

## ACGGAGCAAUAUUACGUGUG
30 °C
  self-splicing fitness (ln): -3.92 ± 0.19
37 °C
  self-splicing fitness (ln): -2.56 ± 0.14

## ACGGAGCAAUAUUACGUUAA
30 °C
  self-splicing fitness (ln): -2.65 ± 0.23
37 °C
  self-splicing fitness (ln): -3.13 ± 0.47

## ACGUAGCAAUAUUACGAACU
30 °C
  self-splicing fitness (ln): -0.677 ± 0.059
37 °C
  self-splicing fitness (ln): -0.266 ± 0.082

## ACGUAGCAAUAUUACGACCA
30 °C
  self-splicing fitness (ln): -0.97 ± 0.086
37 °C
  self-splicing fitness (ln): -0.34 ± 0.1

## ACGUAGCAAUAUUACGAGGU
30 °C
  self-splicing fitness (ln): -3.36 ± 0.21
37 °C
  self-splicing fitness (ln): -2.02 ± 0.2

## ACGUAGCAAUAUUACGAUCA
30 °C
  self-splicing fitness (ln): -0.757 ± 0.1
37 °C
  self-splicing fitness (ln): -0.359 ± 0.086

## ACGUAGCAAUAUUACGAUCG
30 °C
  self-splicing fitness (ln): -1.15 ± 0.1
37 °C
  self-splicing fitness (ln): -0.0917 ± 0.12

## ACGUAGCAAUAUUACGAUUU
30 °C
  self-splicing fitness (ln): 0.256 ± 0.059
37 °C
  self-splicing fitness (ln): -0.149 ± 0.073

## ACGUAGCAAUAUUACGCAAG
30 °C
  self-splicing fitness (ln): -3.16 ± 0.24
37 °C
  self-splicing fitness (ln): -3.03 ± 0.22

## ACGUAGCAAUAUUACGCAGC
30 °C
  self-splicing fitness (ln): -3.26 ± 0.26
37 °C
  self-splicing fitness (ln): -2.71 ± 0.25

## ACGUAGCAAUAUUACGCAGG
30 °C
  self-splicing fitness (ln): -3.67 ± 0.24
37 °C
  self-splicing fitness (ln): 0.325 ± 0.1

## ACGUAGCAAUAUUACGGCAG
30 °C
  self-splicing fitness (ln): -4.15 ± 0.28
37 °C
  self-splicing fitness (ln): -2.61 ± 0.33

## ACGUAGCAAUAUUACGGCAU
30 °C
  self-splicing fitness (ln): -1.31 ± 0.1
37 °C
  self-splicing fitness (ln): -0.11 ± 0.099

## ACGUAGCAAUAUUACGGCGG
30 °C
  self-splicing fitness (ln): -1.65 ± 0.1
37 °C
  self-splicing fitness (ln): -0.812 ± 0.11

## ACGUAGCAAUAUUACGUACC
30 °C
  self-splicing fitness (ln): -1.4 ± 0.13
37 °C
  self-splicing fitness (ln): -0.541 ± 0.19

## ACGUAGCAAUAUUACGUACG
30 °C
  self-splicing fitness (ln): -2.3 ± 0.19
37 °C
  self-splicing fitness (ln): -1.35 ± 0.23

## ACGUAGCAAUAUUACGUCAA
30 °C
  self-splicing fitness (ln): -3.44 ± 0.27
37 °C
  self-splicing fitness (ln): -2.34 ± 0.19

## ACGUAGCAAUAUUACGUGAC
30 °C
  self-splicing fitness (ln): -2.84 ± 0.14
37 °C
  self-splicing fitness (ln): -2.94 ± 0.22
